The data set can be described thus: soluble on expression in E. coli; label from the status in PepcDB or PDB records.
Regarding “MDVRRLKVNELREELQRRGLDTRGLKAELAERLQAALEAEEPDDERELDADDEPGRPGHINEEVETEGGSELEGTAQPPPPGLQPHAEPGGYSGPDGHYAMDNITRQNQFYDTQVIKQENESGYERRPLEMEQQQAYRPEMKTEMKQGAPTSFLPPEASQLKPDRQQFQSRKRPYEENRGRGYFEHREDRRGRSPQPPAEEDEDDFDDTLVAIDTYNCDLHFKVARDRSSGYPLTIEGFAYLWSGARASYGVRRGRVCFEMKINEEISVKHLPSTEPDPHVVRIGWSLDSCSTQLGEEPFSYGYGGTGKKSTNSRFENYGDKFAENDVIGCFADFECGNDVELSFTKNGKWMGIAFRIQKEALGGQALYPHVLVKNCAVEFNFGQRAEPYCSVLPGFTFIQHLPLSERIRGTVGPKSKAECEILMMVGLPAAGKTTWAIKHAASNPSKKYNILGTNAIMDKMRVMGLRRQRNYAGRWDVLIQQATQCLNRLIQIAARKKRNYILDQTNVYGSAQRRKMRPFEGFQRKAIVICPTDEDLKDRTIKRTDEEGKDVPDHAVLEMKANFTLPDVGDFLDEVLFIELQREEADKLVRQYNEEGRKAGPPPEKRFDNRGGGGFRGRGGGGGFQRYENRGPPGGNRGGFQNRGGGSGGGGNYRGGFNRSGGGGYSQNRWGNNNRDNNNSNNRGSYNRAPQQQPPPQQPPPPQPPPQQPPPPPSYSPARNPPGASTYNKNSNIPGSSANTSTPTVSSYSPPQPSYSQPPYNQGGYSQGYTAPPPPPPPPPAYNYGSYGGYNPAPYTPPPPPTAQTYPQPSYNQYQQYAQQWNQYYQNQGQWPPYYGNYDYGSYSGNTQGGTSTQ”, the “soluble on expression in E. coli” value is reported as “soluble”.

“MKLTDYVKQVSLEDFGRPFIHHVQWNRRLRSTGGRFFPKDGHLDFNPKVYQELGLDVFRKIVRHELCHYHLYFQGKGYQHKDRDFKELLKAVDGLRFVPSLPNSNSKPIKLYRCQSCQQRYQRKRRIDTQRYRCGLCRGKLLLVNQPEDLEHHHHHH”: the “soluble on expression in E. coli” value was “not soluble”.

As for “MPIRSNPFFNMDSSALLSLLRHTGTSMDSKSSKKSSGSIGGGVLKMFKLIPMLSSGCKMVNLLSRGHRRPLLKDYATTGTIFGFRKGRVFLAIQEDPHCLPIFIIELPMLTSALQKEMASETVRIALESETKTSRKKVLEEYVWGIYCNGRKIGYSIRRKNMSEEEMYVIDALRGVSMGAGVLPCKNQYDQETEGEMTYMRARFDRVIGSKDSEALYMINPEGSGQGTELSIYFLRSH”, the “soluble on expression in E. coli” value is reported as “soluble”.

Turning to “AIADFSENASGIPAEELAFPEIIELNVGGQVYITRYLTLTSVPDSLLWKMFSQKSSKDLARDTKGRFFIDRDGFLFRYILDYMRDQQLVLPEHFPEQGRLQREAEFFNLPELVQLLAPKISKQNTLGDDGCQTDQDESSPGANITCNLSSLGAYSSLGAATADGQRSGFITIGCRGSYTLGRDCQTDAKFRRVARIMVCGKTSLAKEVFGETLNESHDPDRQPDRYTSRYYLKFTSLEQAFDRLADAGFHMVACNSTGTCAFAHVQTDDKIWTSYNEYVFYRE”, the “soluble on expression in E. coli” value was “soluble”.

Consider “MGSDKIHHHHHHMAGCDDSFDIIVVGAGPVGLSFAASLAYSQLKLAVVEGQALERLASPAFDGREIALTHASIGILRELGAWDVISASDKSPLQGARVLNGSSPFALCFDSPGGSAEPLGVLVPNCQIRDALFKIIRLRGHARLLCGHSVVRATNSRQGAVITLSNGRQLSARLLVAADSRFSATRNLLGIGADINRLGNSMLICRVRHERPHHQIAIEWFDHHQTVAMLPLAPGVSSLLLTLPSNEADGLLALDDELFLRELTKRCRGRLGTMSLASQRYIYPLATTWAHRFRAPSFALIGDAAIGMHPVTAHGFNIGLGGQKQLARGIETAWRDRRDIADPDMLHRYESRLRLSAAPLYHATNILVGLYSSEHPAARLARHVGLRLGQHLPFVRHGIAAMLRR”, for which the “soluble on expression in E. coli” value is on record as “not soluble”.

Turning to “MGSDKIHHHHHHMSRIENQFTVQFWGVRGSIPSPGPHTVRYGGNTPCISMQAGDKRLVFDAGTGLHVLGQSWLRQMPLEGHIFFTHSHWDHMQGFPFFTPGFVKGNDFHIYGAIAPDGSTIEQRLNDQMLHPNFPVPLQIMQANLKFYDIRPGQPIHIDDVTVETAPLNHPGEAVGYRVNWRGGAVAYITDTEHFPDRLDDNVLWLARNADILVYDSTYTDEEYHSPKTPKIGWGHSTWQEAVKVAQAANVKTLVIYHHDPAHNDDFLDCVGQQASEKFPGAIMAREGMVLQIPTSVALSESFPVSKFST”, the “soluble on expression in E. coli” value was “not soluble”.

Regarding “MSPIPLPVTDTDDAWRARIAAHRADKDEFLATHDQSPIPPADRGAFDGLRYFDIDASFRVAARYQPARDPEAVELETTRGPPAEYTRAAVLGFDLGDSHHTLTAFRVEGESSLFVPFTDETTDDGRTYEHGRYMDVDPAGADGGDEVALDFNLAYNPFCAYGGSFSCALPPADNHVPAAITAGERVDADLEHHHHHH”, the “soluble on expression in E. coli” value is listed as “soluble”.

In the case of “MGSDKIHHHHHHHPCARLSVRMSSTGIDRKGVLANRVAVVTGSTSGIGFAIARRLARDGAHVVISSRKQQNVDRAMAKLQGEGLSVAGIVCHVGKAEDREQLVAKALEHCGGVDFLVCSAGVNPLVGSTLGTSEQIWDKILSVNVKSPALLLSQLLPYMENRRGAVILVSSIAAYNPVVALGVYNVSKTALLGLTRTLALELAPKDIRVNCVVPGIIKTDFSKVFHGNESLWKNFKEHHQLQRIGESEDCAGIVSFLCSPDASYVNGENI”, the “soluble on expression in E. coli” value is “not soluble”.

Turning to “MIQPVAVIGAGPFGLSTAAHLRARGIPVRVFGDPMVSWRDHMPAGMLLKSTPAASTIDAPQRGHRLVDYCDAAGIARLVTDEDIIPVETFIGYGRWFQEQLVPGLEQVRVVSVDRKAGGGFELKLDSGELFTARAVVVATGLSGLAHLPAELAGAAVDGPTPTGPVSHSSQHHDLSRFAGKELVVVGAGQSALETAALAAEAGAHVRVVSRGRGRVSFGAPPWKQPRLRPESPFGRAWSLWALSYYPHPYRYLPAEARHYLVRRVLGPLGAWWLRDRFEGKVEVREVASVARAHASEGSPVLTLRTHGGRTQELPADHVIAATGYRVDIAAMDFLGHELRTELVVSRGTPKLGAGFRSSVPGLYFTGLPAAASYGPVMRFVCGTEFASPRLAKHLAGAHGLEHHHHHH”, the “soluble on expression in E. coli” value was “not soluble”.

Consider “NQLLGMHQIEKEMTQYFGIQRCIVVAGDSDIQKKVLSDFGDVLTNTLNLLLPNGENTIAVMGGTTMAMVAENMGSLETEKRHNLFVPARGGIGEAVSVQANSISAVMANKTGGNYRALYVPEQLSRETYNSLLQEPSIQEVLTLISHANCVVHSIGRALHMAARRKMSDDEMVMLKQKNAVAESFGYFFDEEGKVVYKIPRIGLQLKNLQEIPYVVAIAGGKTKAKAIRAYMKNAPKQTWLITDEAAANEILKGVTL”, for which the “soluble on expression in E. coli” value is “not soluble”.

Regarding “MSTPLMQRSLSPQEWQVFQRGDRWTGARLHQPLNLLLIGSKVLTSDLDHPPDPNLTYHALVNSVEGLSDSLLLVRFDPVQQRLVILSIPRDTLTFIPGRGDAKINEANALGGPALAAATVSELLGNVPIDRYLRINVQGIEKLIDALGGVTLDVPIAMRYRDESQHLYIDLQAGRHHLNGQQALQFLRFRYDALGDIGRVQRQQMFLRTLMEQTARPETLARTPHILSIIRENLDTNLTVEELMSLGQFLTRLPRSRVQFLLLPGNFNGTTEEVAVSYWLPNYQRIAWLTDQYFRDTPTADPRETGLPSPAQVRIAIQNTNLPQSLVMRLSEQLATAGYPHPLVAEPLPQPIPITRIIAQQGDLAAARQVQLLLGFGEVRVESTGVLASDVTIQLGDDARDRLQLRRTTSLLEHHHHHH”, the “soluble on expression in E. coli” value was “soluble”.

As to “MSLKMTNNTVLITGGSAGIGLELAKRLLELGNEVIICGRSEARLAEAKQQLPNIHTKQCDVADRSQREALYEWALKEYPNLNVLVNNAGIQKEIDFKKGTEELFVDGDEIELNFQAPVHLSALFTPHLMKQPEAAIVQVTSGLAFNPLAVYPVYCATKAALHSFSLTLRHHVRDTSVEVIEMAPPMVDTGLNQKSRDKQGLTYRGISSEEYVQYFLDGLKEGKQEITNERVEGLRDATRADYDRLFEQMNTQEGHHHHHH”, the “soluble on expression in E. coli” value was “soluble”.

For the sequence “MKGIEVENLKFSHNGREILHDINFEIDKGSFLIILGPNGAGKTTLLRCIAGILKYKGSIKVLGNDIKELSRIELAKLLAYVPQRIEPGFLRVFDFVLLGRKPYMGLNPGRKDLKAVEDALRLLGIQRLEDRIMKTLSGGELQKVAIARAIAQETPVILLDEPTNNLDPKSQIEVMEIIKDLVKRGKTVVTVMHDLTLALRFGEEFLFLKDGRSTGLLTREELEEKILSETYGVKIRVARVEGEVIPLVGL”, the “soluble on expression in E. coli” value is reported as “soluble”.

Turning to “MAHHHHHHMKSSSKDLCKYFCRKCNNFIYYNEACELIYKKIYPDYYKIYYNKYEFDKKTKGKKEVNPKQYDNLYRQLYNNGLCGVNKQRNDFLNKDNINNILLFLNKGSIQCNKCNHIHMWYMK”, the “soluble on expression in E. coli” value is “soluble”.

With “GQANHPTAAVVTEKQQMLEQHLQDVRKRVQDLEQKMKVVENLQDDFDFNYKTLKSQGDMQDLNGNNQSVTRQKMQQLEQMLTALDQMRRSIVSELAGLLSAMEYVQKTLTDEELADWKRRQQIACIGGPPNICLDRLENWITSLAESQLQTRQQIKKLEELQQKVSYKGDPIVQHRPMLEERIVELFRNLMKSAFVVERQPCMPMHPDRPLVIKTGVQFTTKVRLLVKFPELNYQLKIKVCIDKDSGDVAALRGSRKFNILGTNTKVMNMEESNNGSLSAEFKHLTLREQRCGNGGRANCDASLIVTEELHLITFETEVYHQGLKIDLETHSLPVVVISNICQMPNAWASILWYNMLTNNPKNVNFFTKPPIGTWDQVAEVLSWQFSSTTKRGLSIEQLTTLAEKLLGPGVNYSGCQITWAKFCKENMAGKGFSFWVWLDNIIDLVKKYILALWNEGYIMGFISKERERAILSTKPPGTFLLRFSESSKEGGVTFTWVEKDISGKTQIQSVEPYTKQQLNNMSFAEIIMGYKIMDATNILVSPLVYLYPDIPKEEAFGKYCR”, the “soluble on expression in E. coli” value is recorded as “soluble”.

As to “MAHHHHHHMNFVFIYIVLISFFNKSRCDNELSVKGSLTVANLKISSKNNQENGILFVNEESEYKIGLNERSELIISKKKKPLVTIDEHENLNFFNLDLSVKILNIQGILKIMNVNQFQMFVHEDFSNSSNTKGWIGDQFFNYTSSCGGINLLGGYGKLSKGEIYKTFENIPSHSQIRIKCNFHFIDNWDNQTAYMKITTDEKEEKYYVWTDTHSQINKQNSINICGNTTGESKFFSIIDIIIPHNSNKLIIYFGTNIQKDEPNLISWGISNFQIYLI”, the “soluble on expression in E. coli” value is on record as “not soluble”.

“MLQSINQLNPDIVVITGDLTENGFSAEYDGVKMFIDRIECKNRVLVPGNHDSKNAGYLHFEDLFENRFQTRNLGNMTIVGADSSQPDIDDGHLGRENYGWIKEAFSGENFKVFALHHHLVPIPLAGRENTVLVDAGDVLDLLNKCRVNLVLCGHCHIPHVWNLNNMLVVNAGTFCSSKTRGKTTQCFNLIQAENSEKNGNGESEKIEDGGWKVRVSRVFPQGNIEFITETVMLEHHHHHH”: the “soluble on expression in E. coli” value was “not soluble”.

In the case of “HGPKTGTPETKTVEIPFETKREFNPKLQPGEERVKQEGQPGSKTITTPITVNPLTGEKVGEGQPTEEITKQPVDKIVEFGGEK”, the “soluble on expression in E. coli” value is “soluble”.

As to “MPRTVTHNPDSPNNDDVLAASEKWDACKPPYTSAHMKICVAAAKIILAASGVARCSKYEKENYLRIDFSKAGKVTFYAEFPKKMGLKGKKLGEWPELVIQLAREKALGMADGGLRAESVHAALEMYRDDPKPK”, the “soluble on expression in E. coli” value is “not soluble”.

Source of the values: the DeepSol protein solubility set.
